According to US20170298096A1 (CANIMGUIDE THERAPEUTICS, published 2017):
No end group written: not given here.

T1: His-tagged P3028 (human, also: His-tag, terminus and sequence not given here)
T1 construct: in solution at 0.5 ug/mL over the peptide cards; found with anti-His-tag antibody and rabbit anti-mouse peroxidase (rampo); also called PGE73; not shown: His-tag
T1 peptide: VFDEFKPLVEEPQNLIK


Target: T1, His-tagged P3028
Experiment: PEPSCAN chip ELISA, His-P3028 in solution;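 further: score is the raw OD at 405 nm from peroxidase colour with ABTS, imaged by CCD camera before and after staining, with wells showing air bubbles set to zero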

| Binder | RAMPO Score |
| --- | --- |
| RKLDTFFVKLSLFTER [SEQ ID NO 3] | 523 rampo score |
| NKLDTFFVKLSLFTER [SEQ ID NO 276] | 445 rampo score |
| KKMDTFFVKLSLFTER [SEQ ID NO 291] | 460 rampo score |
| EKLDTFFVKLSLFTER [SEQ ID NO 270] | 396 rampo score |
| KKLDTFFVKLHLFTER [SEQ ID NO 18] | 535 rampo score |
| KKLDTFFVKVSLFTER [SEQ ID NO 14] | 658 rampo score |
| TKLDTFFVKLSLFTER [SEQ ID NO 280] | 493 rampo score |
| IKLDTFFVKLSLFTER [SEQ ID NO 273] | 483 rampo score |
| KKLDTFFVKLSLFNER [SEQ ID NO 31] | 599 rampo score |
| KKLDTFFVKLSLSTER [SEQ ID NO 27] | 635 rampo score |
| HKLDTFFVKLSLFTER [SEQ ID NO 272] | 428 rampo score |
| KKLDTAFVKLSLFTER [SEQ ID NO 7] | 575 rampo score |
| KKEDTFFVKLSLFTER [SEQ ID NO 5] | 528 rampo score |
| KKGDTFFVKLSLFTER [SEQ ID NO 287] | 563 rampo score |
| KKLDTVFVKLSLFTER [SEQ ID NO 8] | 547 rampo score |
| VKLDTFFVKLSLFTER [SEQ ID NO 281] | 442 rampo score |
| KKLDGFFVKLSLFTER [SEQ ID NO 95] | 386 rampo score |
| KKLDTFFVKLSLATER [SEQ ID NO 29] | 525 rampo score |
| KKIDTFFVKLSLFTER [SEQ ID NO 289] | 454 rampo score |
| KKLDTFFVKLSLQTER [SEQ ID NO 23] | 1140 rampo score |
| QKLDTFFVKLSLFTER [SEQ ID NO 278] | 455 rampo score |
| KKADTFFVKLSLFTER [SEQ ID NO 282] | 427 rampo score |

| Binder | RAMPO Score |
| --- | --- |
| KKLDTFFVKLSLMTER [SEQ ID NO 22] | 1190 rampo score |
| KKLDTFFVKLSLGTER [SEQ ID NO 28] | 531 rampo score |
| KKLDTFFVKLSLHTER [SEQ ID NO 24] | 1050 rampo score |
| KKLDTFFVKLSLPTER [SEQ ID NO 26] | 696 rampo score |
| KKLDTFFKKLSLFTER (also called P27; SCF 27) [SEQ ID NO 264] | 253 rampo score |
| KKLDQFFVKLSLFTER [SEQ ID NO 6] | 535 rampo score |
| GKLDTFFVKLSLFTER [SEQ ID NO 271] | 367 rampo score |
| KKFDTFFVKLSLFTER [SEQ ID NO 286] | 393 rampo score |
| KKLDTFFVKLGLFTER [SEQ ID NO 99] | 288 rampo score |
| GKLDTFFVKLSLFTER [SEQ ID NO 93] | 367 rampo score |
| KKHDTFFVKLSLFTER [SEQ ID NO 288] | 477 rampo score |
| KKLDTFFVKLSLFRER [SEQ ID NO 33] | 264 rampo score |
| KKLDTFTVKLSLFTER [SEQ ID NO 12] | 517 rampo score |
| KKLDTFFVKLSMFTER [SEQ ID NO 21] | 499 rampo score |
| KKCDTFFVKLSLFTER [SEQ ID NO 283] | 432 rampo score |
| KKLDTFFVKLSQFTER [SEQ ID NO 19] | 651 rampo score |
| KKGDTFFVKLSLFTER [SEQ ID NO 94] | 563 rampo score |
| KKLDTFFVKLSVFTER [SEQ ID NO 20] | 545 rampo score |
| KKNDTFFVKLSLFTER [SEQ ID NO 292] | 374 rampo score |
| KKLDTFSVKLSLFTER [SEQ ID NO 10] | 700 rampo score |
| KKQDTFFVKLSLFTER [SEQ ID NO 293] | 473 rampo score |
| KKRDTFFVKLSLFTER [SEQ ID NO 294] | 370 rampo score |

| Binder | RAMPO Score |
| --- | --- |
| RKLDTFFVKLSLFTER [SEQ ID NO 279] | 523 rampo score |
| KKDDTFFVKLSLFTER [SEQ ID NO 284] | 492 rampo score |
| KKLDTFGVKLSLFTER [SEQ ID NO 96] | 347 rampo score |
| KKLDTFFVKLMLFTER [SEQ ID NO 16] | 744 rampo score |
| KKLDTFFVKLSLFPER [SEQ ID NO 32] | 551 rampo score |
| AKLDTFFVKLSLFTER [SEQ ID NO 268] | 466 rampo score |
| KKLDTFLVKLSLFTER [SEQ ID NO 13] | 517 rampo score |
| KKLDTFFVKLTLFTER [SEQ ID NO 17] | 520 rampo score |
| KKKDTFFVKLSLFTER [SEQ ID NO 290] | 386 rampo score |
| KKLDTFVVKLSLFTER [SEQ ID NO 11] | 527 rampo score |
| KKLDTFFVKLSLNTER [SEQ ID NO 25] | 862 rampo score |
| KKLDTFMVKLSLFTER [SEQ ID NO 9] | 712 rampo score |
| MKLDTFFVKLSLFTER [SEQ ID NO 275] | 457 rampo score |
| PKLDTFFVKLSLFTER [SEQ ID NO 277] | 387 rampo score |
| KKGDTFFVKLSLFTER [SEQ ID NO 4] | 563 rampo score |
| KKLDTFFVKLSLGTER [SEQ ID NO 100] | 531 rampo score |
| DKLDTFFVKLSLFTER [SEQ ID NO 269] | 373 rampo score |
| KKEDTFFVKLSLFTER [SEQ ID NO 285] | 528 rampo score |
| KKLDTFFVKLQLFTER [SEQ ID NO 15] | 768 rampo score |
| KKLDTFFVKLSLRTER [SEQ ID NO 30] | 502 rampo score |
| LKLDTFFVKLSLFTER [SEQ ID NO 274] | 449 rampo score |
